According to patent US12698495B2, “Engineered tryptophan decarboxylases and uses thereof for synthesizing tryptamine analogs” (priority 2022, dated 2026):
Residue numbers refer to the chain shown, from its start. Names may count otherwise.

Columns and labels:
serotonin receptor = conditions: known from literature (ref. 43); cited from earlier work
[1] = cited from earlier work
[2] = PfTrpB variant activity and promiscuity; type: biochemical, Pyrococcus furiosus

Molecule: CCOc1ccc2[nH]cc(CCN)c2c1 [5-OEt-tryptamine]
- serotonin receptor activity (serotonin receptor): agonists

Molecule: COc1ccc2[nH]cc(CCN)c2c1 [5-OMe-tryptamine]
- serotonin receptor activity (serotonin receptor): agonists

B1: 2B9: engineered PfTrpB variant 2B9, SEQ ID NO:3 (protein, listed as Pyrococcus furiosus)
chain: MWFGEFGGQYVPETLVGPLKELEKAYKRFKDDEEFNRQLNYYLKTWAGRPTPLYYAKRLTEKIGGAKVYLKREDLVHGGAHKTNNAIGQALLAKLMGKTRLIAETGAGQHGVATAMAGALLGMKVDIYMGAEDVERQKMNVFRMKLLGANVIPVNSGSRTLKDAINEALRDWVATFEYTHYLIGSVVGPHPYPTIVRDFQSVIGREAKAQILEAEGQLPDVIVACVGGGSNAMGIFYPFVNDKKVKLVGVEAGGKGLESGKHSASLNAGQVGVSHGMLSYFLQDEEGQIKPSHSIAPGLDYPGVGPEHAYLKKIQRAEYVAVTDEEALKAFHELSRTEGIIPALESAHAVAYAMKLAKEMSRDEIIIVNLSGRGDKDLDIVLKASGNVLEHHHHHH
- activity with a variety of substrate analogs ([1]; 75° C.): high activity
- activity at lower temperatures ([1]; lower temperatures than 75° C.): activity decreases

B2: H275E (protein, listed as Pyrococcus furiosus)
chain: B1 chain with H275E
- activity and promiscuity of PfTrpB variant in SUMS [2]: generally activated
- activity of PfTrpB mutant ([2]; 75° C.): activating
